Source: patent US20190276502A1 (OXFORD UNIVERSITY INNOVATION, published 2019)

T1: Recombinant Eap protein (C-terminal MAP domain and adjacent basic region of S. aureus Eap), His tag excised (Staphylococcus aureus Newman, UniProt A6QIG2 481-584)
T1 construct: The tag was removed with HRV 3C protease before coating on the plate; also called immobilized Eap; untagged Eap
T1 sequence: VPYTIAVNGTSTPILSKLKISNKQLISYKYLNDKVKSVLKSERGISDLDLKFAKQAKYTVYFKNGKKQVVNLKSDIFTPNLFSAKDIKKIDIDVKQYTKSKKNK

T2: Recombinant EapH2 protein (MAP domain of S. aureus EapH2), His tag excised (Staphylococcus aureus Newman, UniProt A0A0H3K729 24-144)
T2 construct: The N-terminal His-tag was removed with HRV 3C protease; also called immobilized EapH2; untagged EapH2
T2 sequence: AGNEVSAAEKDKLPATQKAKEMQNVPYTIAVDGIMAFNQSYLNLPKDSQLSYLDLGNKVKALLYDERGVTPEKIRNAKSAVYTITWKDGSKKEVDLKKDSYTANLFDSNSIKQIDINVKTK

T3: Recombinant His-tagged EapH2 protein (MAP domain of S. aureus EapH2) (Staphylococcus aureus Newman, UniProt A0A0H3K729 24-144)
T3 construct: Made in E. coli and used as the soluble His-tagged ligand; not shown: N-terminal His-tag and 3C protease site from vector pOPIN-F
T3 sequence: T2 sequence

B1: Recombinant His-tagged Eap protein (C-terminal MAP domain and adjacent basic region of S. aureus Eap) (other)
chain: T1 sequence
notes: not shown: N-terminal His-tag and 3C protease site from vector pOPIN-F
B2: Recombinant EapH1 protein (MAP domain of S. aureus EapH1), His tag excised (other)
chain: PSHEASADSNNGYKEMTVDGYHTVPYTISVDGITALHRTYFIFPENKNVLYQEIDSKVKNELASQRGVTTEKINNAQTATYTLTLNDGNKKVVNLKKNDDAKNSIDPSTIKQIQIVVK
notes: The N-terminal His-tag was removed with HRV 3C protease; also called immobilized EapH1; untagged EapH1

Assays:
[1] = target: T1, Recombinant Eap protein (C-terminal MAP …); assay: plate interaction assay (EIA): untagged protein immobilised, His-tagged ligand titrated, anti-His alkaline phosphatase detection, Kd by non-linear regression
[2] = target: T2, Recombinant EapH2 protein (MAP domain …); assay: as above
[3] = target: T3, Recombinant His-tagged EapH2 protein …; assay: plate interaction assay (EIA): untagged protein immobilised, His-tagged ligand titrated, anti-His alkaline phosphatase detection

Binder	Kd [1]	Kd [2]	binding result [3]
B1	80 nM	82 nM	–
B2	–	–	binds
